Measured values from the nanobody polyreactivity screen of Harvey et al. (2022).

Experiment: yeast display, Sf9 membrane polyspecificity reagent, FACS + sequencing; frameworks hold sequencing errors
In short: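 After 36–48 hours of galactose induction, yeast (Saccharomyces cerevisiae BJ5465) displaying a synthetic nanobody library were stained at 4 °C for 1 hour with 10% biotinylated, detergent-solubilized Sf9 membrane reagent. Streptavidin microbeads enriched the stained cells before FACS sorting into low and high (top ~1%) gates on anti-HA and streptavidin fluorescence. Each clone's polyreactivity label reflects its gate of origin.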

Row | Sequence | polyreactivity (PSR sort gate)
1 | QVQLVESGGGLVQAGGSLRLSCAASGRTFAYNTMGWYRQAPGKEREFVAAIDSGDSTYYADSVKGRFTISRDNAKNTVYLQMNSLKPEDTAVYYCAARRYYGYDYWGQGTLVTVSS | high polyreactivity
2 | QVQLVESGGGLVQAGGSLRLSCAASGRTFAYNTMGWYRQAPGKERELVAAITSGGSTYYADSVKGRFTISRDNAKNTVYLQINSLKPEDTAVYYCSAVDYWDYFYWRDDYWGQGTQVTVSS | low polyreactivity
3 | QVQLVESGGGLVQAGGSLRLSCAASGRTFAYNVMGGYRQAPGKERELVAGISFGAGSTYYADSVKGRFTISRDNAKNTVYLQMNSLNPEDTAVYYCATRRRGTRYQLGYDYWGQGTQVTVSS | high polyreactivity
4 | QVQLVESGGGLVQAGGSLRLSCAASGRTFAYYAMGWYRQAPGKERELVAAISTSGTRTYYADSVKGRFTISRDNAKNTVYLQMNSLKPEDTAVYYCAARYRYQYEFDYWGQGTQVTVSS | high polyreactivity
5 | QVQLVESGGGLVQAGGSLRLSCAASGRTFAYYVMGWDRQAPGKERELVAAISWSAGSTYYADSVKGRFTISRDNAKNTVYLQMNSLKPEDTAVYYCAADYRFRYEYWGQGTQVTVSS | low polyreactivity
6 | QVQLVESGGGLVQAGGSLRLSCAASGRTFDDYAMGWDRQAPGKERELVAAITQNGRDTYADSVKGRFTISRDNSKKYRLFTDVQPVTGRYRGLLLRCVRYEVNLYDYWGQGTQVTVST | low polyreactivity
7 | QVQLVESGGGLVQAGGSLRLSCAASGRTFDGNAMGWYRQAPGKEGEFVATISTDGGSTHYADSVKGRFTISRDNAKNTVYLQMNSLKPEDTAVYYCAADTPWYDDNYDYWGQGTQVTVSS | low polyreactivity
8 | QVQLVESGGGLVQAGGSLRLSCAASGRTFDGNAMGWYRQAPGKERELVAAISQGGGSTYYADSVKGRFTISRDNAKNTVYLQMNSLKPEDTAVYYCNAVGYTPRKPSKFDYWGQGTQVTVSS | low polyreactivity
9 | QVQLVESGGGLVQAGGSLRLSCAASGRTFDGYAMGWYRQAPGKERELVAAISTSGVRTYYADSVKGRFTISRDNAKNTVYLQMNSLKPEDTAVYYCAADWTGGYEYWGQGTQVTVSS | high polyreactivity
10 | QVQLVESGGGLVQAGGSLRLSCAASGRTFDGYMGWYRQAPGKERELVAAISYDTGSTYADSVKGRFTISRDNAKNTVYLQMNSLKPEDTAVYYCYGYPYQTLYGYWGQGTQVTVSS | low polyreactivity
11 | QVQLVESGGGLVQAGGSLRLSCAASGRTFDHYAMGWYRQAPGKERELVAAITSGGSTYYADSVKGRFTISRDNAKNTVYLQRNSLKPEDTAVYYCNKDSSFWGYYIAQVNERDYWGQGTQVTVSS | low polyreactivity
12 | QVQLVESGGGLVQAGGSLRLSCAASGRTFDIYAMGWYRQAPGKERELVADITWSDGTTYYADSVKGRFTISRDNAKNTVYLQMNSLKPEDTAVYYCNAYTVYAYDYWGQGTQVTVSS | low polyreactivity
13 | QVQLVESGGGLVQAGGSLRLSCAASGRTFDRYAMGWYRQAPGKERELVAAISSGGSTYYADSVKGRFTISRDNAKNTVYLQMNSLKPEDTAVYYCAAGESGSFFIYYYWGQGTQVTVSS | low polyreactivity
14 | QVQLVESGGGLVQAGGSLRLSCAASGRTFDRYAMGWYRQAPGKERELVAAITWSGGRTYYADSVKGRFTISRDNAKNTVYLQMNSLKPEDTAVYYCAADNSYRGYHSPYDYWGQGTQVTVSS | low polyreactivity
15 | QVQLVESGGGLVQAGGSLRLSCAASGRTFDSYAMGWYRQAPGKERELVAAIYADSVKGRFTISRDNAKNTVYLQMNSLKPEDTAVYYCAAETYSGQTYLGEYDYWGQGTQVTVSS | low polyreactivity
16 | QVQLVESGGGLVQAGGSLRLSCAASGRTFDSYTMGWYRQAPGKERELVADITFTGGSTYYADSVKGRFTISRDNAKNTVYLQMNSLKPEDTAVYYCNADREYKWYFRYDYWGQGTQVTVSS | low polyreactivity
17 | QVQLVESGGGLVQAGGSLRLSCAASGRTFDTNARGWYRQAPGKERELVAVITARGGNTSYADSVKGRFTISRDNAKNTVYLQMNSLKPEDTAVYYCAARVYRAPWTYEEGNYWGQGTQVTVSS | low polyreactivity
18 | QVQLVESGGGLVQAGGSLRLSCAASGRTFDTNPMGWYRQAPGKERELVAVITARGGNTSYADSVKGRFTISRDNAKNTVYLQMNSLKPEDTAVYYCAARVYRAPWTYEEGNYWGQGTQVTVSS | low polyreactivity
19 | QVQLVESGGGLVQAGGSLRLSCAASGRTFDYNAIGWYRQAPGKERDFVAAISGRGGSTYYADSVKARFTISRDNAKNRVYLQMYSLKPEDTAVYYCAADLRFRYSGRYDYWGQGTQVTVSS | high polyreactivity
20 | QVQLVESGGGLVQAGGSLRLSCAASGRTFDYNTMGWYRQAPGKERELVAAISASGGSTYYADSVKGRFTISRDNAKNTVYLQMNSLKPEDTAVYYCAAARAAIVPGYYSWGQGTQVTVSS | low polyreactivity
21 | QVQLVESGGGLVQAGGSLRLSCAASGRTFDYYAMGWYRPAPGKERELVAAIRTSGGSTNYADSVKGRFTISRDNAQNTVYLLMNSLKPEDTAVYYCAARDRPGAYYYGGQGTQVTVSS | high polyreactivity
22 | QVQLVESGGGLVQAGGSLRLSCAASGRTFEGNAMGWYRQAPGKERELVAAITSGGRTNYADSVKGRFTISRDNAKNTVYLQMNSLKPEDTAVYYCAKVYRSIGPNVSRYGLSYYYWGLGTQVTVSS | low polyreactivity

Row | Sequence | polyreactivity (PSR sort gate)
23 | QVQLVESGGGLVQAGGSLRLSCAASGRTFEHYAMGWYRQAPGKERELVAAINSSDGGTYYADSVKGRITISRDNPKNTVYLQMNSLKPEDTAVYYCAAAEFGSVPGYEMDYWGQGTQVTVSS | low polyreactivity
24 | QVQLVESGGGLVQAGGSLRLSCAASGRTFENNAMGWYRQAPGKERELVATIRYSGTSTYADSVKGRFTISRDNAKNTVYLQMNSLKPEDTAVYYCAKQVRYYGYKYNYWGQGTQVTVSS | high polyreactivity
25 | QVQLVESGGGLVQAGGSLRLSCAASGRTFEQYAMGWYRQAPGKERELVAAISKRGGSTYYADSVKGRFTISRDNAKNTVYLQMNSLKPEDTAVYYGATEKASNYFYRFDYWGQGTQVTVSS | low polyreactivity
26 | QVQLVESGGGLVQAGGSLRLSCAASGRTFESYAMGWYRQAPGKERELVAAITWSGGDTYYADSVKGRFTISRDNAKNSVYLQMNSLKPEDTAVYYCAKEQGLYSVSPYDYWGQGSQVTVSS | low polyreactivity
27 | QVQLVESGGGLVQAGGSLRLSCAASGRTFETNAMGWYRQAPGKERELVAAISRSGGRTYYADSVKGRFTISRDNAKNTVYLQMNSLKPEDTAVYYCAVRQATVTGGGYWGQGTQVTVSS | high polyreactivity
28 | QVQLVESGGGLVQAGGSLRLSCAASGRTFEVYAMGRYRQPPGKERELVATITYSGGITYYADSVKGRFTISRDNAKNTVYLQMNSLKPEYTAVYYPICVGGDYDYWGQGTQVTVSS | low polyreactivity
29 | QVQLVESGGGLVQAGGSLRLSCAASGRTFEVYAMGWYRQAPGKERELVAAISGGDDSTYYADSVQGRFTISRDNAKNTVYLQRNSLKPEDTAVYYCNAHYPTSATLPKTVVEYDYWGQGTQVTVSS | low polyreactivity
30 | QVQLVESGGGLVQAGGSLRLSCAASGRTFFDYSMGWYRQAPGKERELVAAITGGDGSTYYADSVKGRFTISRDNAKNTVYIQMNSLKTEDTAVYYCAAENTRTYWYAAMDYWGQGTQVTVSS | low polyreactivity
31 | QVQLVESGGGLVQAGGSLRLSCAASGRTFFGRNVMGWYRPAPGNDRELVAAITSSGASTYYADSVKGRFTISRDNAKNTVYLQMNSLKPEDTAVYYCAAVRYVWQGYDYWGQGTQVTVSS | high polyreactivity
32 | QVQLVESGGGLVQAGGSLRLSCAASGRTFFGYAMGWYRQAPGKERELVAAITSSGGRTYYADSVKGRFTISRDNAKNTVYLQMNSLKTEDTAVYYCNTVLSFRSVNIYRGRGDYWGQGTLVTVSS | high polyreactivity
33 | QVQLVESGGGLVQAGGSLRLSCAASGRTFFHYAMGWSRQAPGKERELVAGISSGGRTKYADSVKGRFTISRDNAKNTVYLQMNSLKPEDTAVYYCAASYIVWLTRGAPRKRFDYWGQGTQVTVSS | high polyreactivity
34 | QVQLVESGGGLVQAGGSLRLSCAASGRTFFHYAMGWYRQAPGKERELVAAISYRGTSTYYADSVKGRFTISRDNAKNTVYLQMISLKPEDTAVYYCNAYSTRCGWSYRGDSWGQGTQVTVSS | high polyreactivity
35 | QVQLVESGGGLVQAGGSLRLSCAASGRTFFLYAMGWYRQAPGKESEFVATISYGGGSTYYADSVKGRFTISRDNAKNTVYLQMNSLKPEDTAVYYCNALNTSQYAEGTSDYDGNMGNWGQCTQVTVSS | low polyreactivity
36 | QVQLVESGGGLVQAGGSLRLSCAASGRTFFQYAMGGYRQAPGKERELVAAIRWSDSTYYADSVKGRFTISRDKAKNTVYLPMNSLKPEDTAVYYCNASVFQSEYDYWGQGTQVTVSS | low polyreactivity
37 | QVQLVESGGGLVQAGGSLRLSCAASGRTFFRYAMGWYRQAPGKERELVAAISSSGGSSYYADSVKGRFTISRDNAKNTVYLQMNSLKPEDTAVYYCNRVYALTYYAKYGYDFWGQGTQVTVSS | high polyreactivity
38 | QVQLVESGGGLVQAGGSLRLSCAASGRTFFRYARGGYRQAPGKERELVAAISVSGASTNYADSVKGRFTISRDNAKNTGYLQMNSQKPEDTAVYYCAARVADYDGVPLYRHGDYWGPGTQVTVSS | low polyreactivity
39 | QVQLVESGGGLVQAGGSLRLSCAASGRTFFWNAMGWYRQAPGKERELVAAITWSGGSTYYADSVKGRFTISRDNAKTTVYLQMNSLKPEDTAVYYCAAVVSDYVWRYEYWGQGTQVTVSS | low polyreactivity
40 | QVQLVESGGGLVQAGGSLRLSCAASGRTFFYAMGWYRQAPGKEREFVAAISWSGGSTYYADSVKGRFTISRDNAKNTVYLQMNSLKPEDTAVYYCNKVGYYGVGTSQEFDYWGQGTQVTVSS | high polyreactivity
41 | QVQLVESGGGLVQAGGSLRLSCAASGRTFFYYAMGWYRQATGKERELVAAITSSGGSTNYADSVKGRFTISRDNAKNTVYLQMNSLKPEDTAVYYCNRDRRLNRVPYFDYWGQGTQVTVSS | high polyreactivity
42 | QVQLVESGGGLVQAGGSLRLSCAASGRTFFYYTMGWYRQAPGKERELVAAISRSGGSTYYADSVKGRFTITRDKAKNTVYLQMNSLKPEDTAVYYCAADRSRNFDWGQGTQVTVSS | high polyreactivity
43 | QVQLVESGGGLVQAGGSLRLSCAASGRTFGANAMGWYRQAPGKERELVAAISSSDDSTYYADSVKGRFTISRDNAKNTVYLQMNSLKPEDTAVYYCAAEDVYPQLDYWGQGTQVTVSS | low polyreactivity
